Holding throughout (experiment): cell-based or functional assay
Test [1] deals with HIV-1 Env of isolate PVO.4 (subtype B) (HIV-1).
The target in test [2] is HIV-1 Env of isolate MGRM-A-009 (subtype A) (HIV-1).
For test [3], the target named is HIV-1 Env of isolate 94UG103 (HIV-1).
The target in test [4] is HIV-1 Env of isolate MG RM-D-008 (HIV-1).
The target in test [5] is HIV-1 Env of isolate MG RM-D-012 (HIV-1).
For test [6], the target named is HIV-1 Env of isolate MG RM-D-004 (HIV-1).
For test [7], the target named is HIV-1 Env of isolate MGRM-AE-005 (subtype AE) (HIV-1).
In test [8] the target is HIV-1 Env of isolate MGRM-Chronic-B-012 (subtype B) (HIV-1).
Test [9] deals with HIV-1 Env of isolate MGRM-Chronic-B-002 (subtype B) (HIV-1).
Test [10] concerns the target HIV-1 Env of isolate 93TH305 (HIV-1).
The target in test [11] is HIV-1 Env of isolate 92TH021 (subtype AE) (HIV-1).
Test [12] has as its target HIV-1 envelope glycoprotein (Env) of isolate MGRM-C-023 (HIV-1).
The target in test [13] is HIV-1 92BR020 Env (pseudovirus, clade B) (HIV-1).
The target of test [14] is HIV-1 Env of isolate MGRM-D-002 (pseudovirus) (HIV-1).
The target of test [15] is HIV-1 APV6 Env (pseudovirus, clade B) (HIV-1).
In test [16] the target is HIV-1 Env of isolate MGRM-D-012 (pseudovirus) (HIV-1).
Test [17] has as its target HIV-1 Env of isolate MGRM-D-013 (pseudovirus) (HIV-1).
Test [18] deals with HIV-1 Env of isolate 92TH021 (clade AE), on pseudovirus (HIV-1).
The target in test [19] is HIV-1 93UG077 Env (pseudovirus, clade A) (HIV-1).
Test [20] deals with HIV-1 92BR020 Env (pseudovirus) (HIV-1).
For test [21], the target named is HIV-1 Env of isolate QH0692.42 (subtype B pseudovirus) (HIV-1).
The target of test [22] is HIV-1 Env of isolate MGRM-AG-002 (HIV-1).
Test [23] concerns the target HIV-1 Env of isolate MGRM-D-018 (pseudovirus) (HIV-1).
The target of test [24] is HIV-1 JRFL Env (pseudovirus) (HIV-1).
Test [25] has as its target HIV-1 MGRM-C-028 Env (pseudovirus, clade C) (HIV-1).
Test [26] has as its target HIV-1 Env of isolate MGRM-D-008 (pseudovirus) (HIV-1).
Test [27] deals with HIV-1 Env of isolate MGRM-Chronic-B-024 (subtype B pseudovirus) (HIV-1).
In test [28] the target is HIV-1 Env of isolate 98CN006 (pseudovirus) (HIV-1).
The target of test [29] is aMLV envelope (negative control pseudovirus).

Chain of 5329_C19 (PGT-136) (antibody) (VH): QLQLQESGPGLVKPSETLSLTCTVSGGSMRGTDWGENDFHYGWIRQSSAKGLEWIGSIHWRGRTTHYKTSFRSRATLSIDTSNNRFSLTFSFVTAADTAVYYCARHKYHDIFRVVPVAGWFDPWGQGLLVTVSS
Chain of 5329_C19 (PGT-136) (antibody) (VL): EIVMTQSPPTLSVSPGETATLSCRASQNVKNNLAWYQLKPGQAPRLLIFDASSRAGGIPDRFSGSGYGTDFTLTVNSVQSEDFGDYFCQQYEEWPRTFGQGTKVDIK
Chain of 5345_I01 (PGT-137) (antibody) (VH): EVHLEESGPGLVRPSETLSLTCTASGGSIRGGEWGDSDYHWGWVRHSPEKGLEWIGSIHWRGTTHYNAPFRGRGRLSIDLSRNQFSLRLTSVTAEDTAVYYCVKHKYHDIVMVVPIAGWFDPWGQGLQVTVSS
Chain of 5345_I01 (PGT-137) (antibody) (VL): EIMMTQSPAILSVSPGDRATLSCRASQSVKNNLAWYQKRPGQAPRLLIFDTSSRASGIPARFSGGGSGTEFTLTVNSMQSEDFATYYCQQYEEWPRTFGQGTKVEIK

Turning to 5114_A19 (PGT-128) (antibody), the IC50 neutralization stood at 0.005 µg/mL in test [1], 0.026 µg/mL in [8] and 0.036 µg/mL in test [9]. Further, the IC50 (µg/mL), pseudovirus neutralization in test [2] was 0.005 µg/mL; in test [4] it was 0.033 µg/mL; in test [5] it was above 50 µg/mL; in test [6], 24.9 µg/mL; in [7] it was 0.032 µg/mL; in test [11], 0.01 µg/mL. Moreover, the IC50 (µg/mL), pseudovirus neutralization in [12] worked out at 0.026 µg/mL. This substance also displayed an IC50 in test [3] of 0.011 µg/mL. Also, in test [10], the neutralization IC50 was 0.006 µg/mL.

As to 5123_A06 (PGT-125) (antibody), the IC50 neutralization in test [13] amounted to 0.0214 µg/mL; in test [15] it was 0.0359 µg/mL; in test [19], 0.0262 µg/mL; in [25], 5.78 µg/mL. The IC50, pseudovirus neutralization is 0.118 µg/mL in [14]; above 50 µg/mL in test [16]; above 50 µg/mL in test [17]; 0.0066 µg/mL in [18]; above 50 µg/mL in test [23]; above 50 µg/mL in test [26]. The substance also showed an IC50, pseudovirus neutralization in test [28] of 0.201 µg/mL. Also, the neutralization IC50 (pseudovirus) in [20] stood at 0.0214 µg/mL; in test [24], 0.0156 µg/mL. Moreover, the IC50 (µg/mL), pseudovirus neutralization in [21] is 0.048 µg/mL; in [27], above 50 µg/mL. In [22], this substance yielded a 50% inhibitory concentration (IC50) above 50 µg/mL.

5136_H01 (PGT-131) (antibody): the IC50 neutralization in test [1] is above 50 µg/mL; in [8], 15.7 µg/mL; in test [9] it was above 50 µg/mL. Further, the IC50 (µg/mL), pseudovirus neutralization is 0.035 µg/mL in [2]; above 50 µg/mL in test [4]; above 50 µg/mL in test [5]; 2.01 µg/mL in test [6]; 0.017 µg/mL in [7]; 0.014 µg/mL in [11]. Further, the IC50 (µg/mL), pseudovirus neutralization in test [12] was 0.143 µg/mL. In test [3], this substance had an IC50 of 1.1 µg/mL. In addition, in test [10], the neutralization IC50 is 0.016 µg/mL.

On to 5141_B17 (PGT-126) (antibody), for which the IC50 neutralization in [13] worked out at 0.0163 µg/mL; in test [15], 0.0249 µg/mL; in test [19] it was 0.0256 µg/mL; in [25] it was 0.283 µg/mL. Also, the IC50, pseudovirus neutralization in test [14] was 0.039 µg/mL; in test [16] it was above 50 µg/mL; in test [17] it was above 50 µg/mL; in [18] it was 0.115 µg/mL; in test [23], 0.009 µg/mL; in [26], 43.1 µg/mL. In test [28], this substance gave an IC50, pseudovirus neutralization of 0.046 µg/mL. Besides, the neutralization IC50 (pseudovirus) was determined as 0.0163 µg/mL in [20] and 0.014 µg/mL in test [24]. Besides, the IC50 (µg/mL), pseudovirus neutralization in test [21] was 0.048 µg/mL; in test [27], above 50 µg/mL. In addition, the IC50 in test [22] was above 50 µg/mL.

Take 5147_N06 (PGT-130) (antibody): the IC50 neutralization in test [1] was 5.17 µg/mL; in test [13] it was 1.12 µg/mL; in [15] it was above 10 µg/mL; in [19], above 10 µg/mL; in [8], 0.373 µg/mL; in [9], above 50 µg/mL. Also, in test [25], the IC50 neutralization is above 10 µg/mL. The IC50 (µg/mL), pseudovirus neutralization in [2] was 0.308 µg/mL; in test [4], above 50 µg/mL; in test [5], above 50 µg/mL; in test [6], 1.21 µg/mL; in [7], 0.006 µg/mL; in test [11] it was 0.009 µg/mL. The substance further showed an IC50 (µg/mL), pseudovirus neutralization in [12] of 0.151 µg/mL. Also, the IC50 in test [3] stood at 1.4 µg/mL. The IC50, pseudovirus neutralization in [18] was determined as 0.0082 µg/mL. Moreover, the Neutralization by PGT-130, IC50 in test [20] was 1.12 µg/mL; in [24], 0.0346 µg/mL. Further, the results for the Neutralization by PGT-130, IC80 in [20] and in test [24] were above 10 µg/mL and 0.751 µg/mL, respectively. The Neutralization by PGT-130, IC90 in [20] is above 10 µg/mL; in test [24] it was 5.72 µg/mL. Besides, the Neutralization by PGT-130, IC95 in [20] and in test [24] was above 10 µg/mL throughout. Moreover, the neutralization IC50 (pseudovirus) is 1.12 µg/mL in test [20] and 0.0346 µg/mL in test [24]. The substance also had a neutralization IC50 in test [10] of 0.021 µg/mL.

Turning to 5329_C19 (PGT-136) (antibody), the IC50 neutralization in test [1] is above 50 µg/mL; in test [13] it was above 10 µg/mL; in test [15] it was above 10 µg/mL; in test [19] it was above 10 µg/mL; in test [8], 43.1 µg/mL; in test [9] it was above 50 µg/mL. This substance also showed an IC50 neutralization in test [25] above 10 µg/mL. The IC50 (µg/mL), pseudovirus neutralization in test [2], in test [4], in test [5], in [6], in [7] and in test [11] was above 50 µg/mL in each case. In [12], the IC50 (µg/mL), pseudovirus neutralization was 3.2 µg/mL. Further, in test [3], the IC50 was above 50 µg/mL. In addition, in [18], the IC50, pseudovirus neutralization is above 10 µg/mL. The substance also yielded a neutralization IC50 (pseudovirus) in test [20] above 10 µg/mL. Moreover, in [10], the neutralization IC50 came out at 20.2 µg/mL. The IC50 (neutralizing activity, pseudovirus) in test [24] and in test [29] was above 10 µg/mL each time.

Turning to 5343_B08 (PGT-135) (antibody), the IC50 neutralization in test [1] was above 50 µg/mL; in test [13], 0.104 µg/mL; in [15], above 10 µg/mL; in test [19], above 10 µg/mL; in test [8], 0.166 µg/mL; in [9], above 50 µg/mL. The substance also came in with an IC50 neutralization in [25] of 2.16 µg/mL. Moreover, the IC50 (µg/mL), pseudovirus neutralization in [2], in [4], in test [5], in [6], in test [7] and in test [11] was above 50 µg/mL in each case. The same substance displayed an IC50 (µg/mL), pseudovirus neutralization in test [12] of 0.061 µg/mL. In test [3], this substance came in with an IC50 above 50 µg/mL. Besides, the IC50, pseudovirus neutralization in test [18] is above 10 µg/mL. This substance also gave a neutralization IC50 (pseudovirus) in test [20] of 0.104 µg/mL. The neutralization IC50 in [10] was above 50 µg/mL. The IC50 (neutralizing activity, pseudovirus) in test [24] and in test [29] was above 10 µg/mL each time.

Regarding 5345_I01 (PGT-137) (antibody), the IC50 neutralization in test [1], in [8] and in test [9] was above 50 µg/mL each time. Moreover, the IC50 (µg/mL), pseudovirus neutralization in test [2], in test [4], in test [5], in [6], in test [7] and in [11] was above 50 µg/mL in each case. For the same substance, the IC50 (µg/mL), pseudovirus neutralization in [12] stood at 0.23 µg/mL. The substance also displayed an IC50 in [3] above 50 µg/mL. Also, the neutralization IC50 in test [10] is above 50 µg/mL.

The IC50 is the concentration needed to halve the response being measured.
